{"source": "paper PMC6359293", "origin": "cited, not measured here", "key": {"hsp70 (Homo sapiens)": {"target": "hsp70 (Homo sapiens) (UniProt P0DMV8)", "sequence (P0DMV8 2-641)": "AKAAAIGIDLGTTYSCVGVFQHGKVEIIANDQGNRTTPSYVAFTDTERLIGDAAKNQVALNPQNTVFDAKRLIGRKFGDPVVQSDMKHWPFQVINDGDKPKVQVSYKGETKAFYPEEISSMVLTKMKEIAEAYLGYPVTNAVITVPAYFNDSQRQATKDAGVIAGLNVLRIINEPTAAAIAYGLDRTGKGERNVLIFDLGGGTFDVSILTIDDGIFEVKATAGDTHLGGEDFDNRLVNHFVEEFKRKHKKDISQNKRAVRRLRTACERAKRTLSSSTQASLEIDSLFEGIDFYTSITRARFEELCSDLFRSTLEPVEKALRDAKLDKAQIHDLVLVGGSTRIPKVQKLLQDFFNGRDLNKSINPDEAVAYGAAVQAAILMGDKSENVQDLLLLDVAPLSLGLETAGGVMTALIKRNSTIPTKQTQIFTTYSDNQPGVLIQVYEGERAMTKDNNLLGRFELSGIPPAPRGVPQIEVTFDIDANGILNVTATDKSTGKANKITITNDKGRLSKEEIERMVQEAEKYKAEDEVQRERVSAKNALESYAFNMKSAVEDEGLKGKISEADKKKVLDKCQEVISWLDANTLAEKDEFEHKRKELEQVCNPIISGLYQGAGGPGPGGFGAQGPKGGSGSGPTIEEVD"}, "[1]": {"target": "Phosphoprotein XD XD (Measles morbillivirus) (UniProt P03422)", "sequence (P03422 457-507)": "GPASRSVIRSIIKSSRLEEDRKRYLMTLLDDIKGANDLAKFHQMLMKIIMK"}}, "note": "pKd: −log10 of the molar value."}
{"substance": "Measles virus nucleoprotein NTAIL NTAIL (from UniProt P04851)", "values": [{"measurement": "pKd", "setting": "hsp70 (Homo sapiens)", "value": 4.15}, {"measurement": "pKd", "setting": "[1]", "value": 5.52}]}
